Assay results as given in patent US12247238B2, “Mogroside biocatalysis methods and products” (The Coca-Cola Company, priority 2019, dated 2025).
Where a chain is given by its changes, count along the chain named. Names and notes keep the numbering of the source. “Also recorded” adds a separate entry of the source.

B1: D258E: A. oryzae β-galactosidase variant, D258E (protein, UniProt Q2UCU3 19-1005, looked up, variant D258E)
Beta-galactosidase A: ASIKHRLNGFTILEHPDPAKRDLLQDIVTWDDKSLFINGERIMLFSGEVHPFRLPVPSLWLDIFHKIRALGFNCVSFYIDWALLEGKPGDYRAEGIFALEPFFDAAKEAGIYLIARPGSYINAEVSGGGFPGWLQRVNGTLRSSDEPFLKATDNYIANAAAAVAKAQITNGGPVILYQPENEYSGGCCGVKYPDADYMQYVMDQARKADIVVPFISNDASPSGHNAPGSGTGAVDIYGHESYPLGFDCANPSVWPEGKLPDNFRTLHLEQSPSTPYSLLEFQAGAFDPWGGPGFEKCYALVNHEFSRVFYRNDLSFGVSTFNLYMTFGGTNWGNLGHPGGYTSYDYGSPITETRNVTREKYSDIKLLANFVKASPSYLTATPRNLTTGVYTDTSDLAVTPLIGDSPGSFFVVRHTDYSSQESTSYKLKLPTSAGNLTIPQLEGTLSLNGRDSKIHVVDYNVSGTNIIYSTAEVFTWKKFDGNKVLVLYGGPKEHHELAIASKSNVTIIEGSDSGIVSTRKGSSVIIGWDVSSTRRIVQVGDLRVFLLDRNSAYNYWVPELPTEGTSPGFSTSKTTASSIIVKAGYLLRGAHLDGADLHLTADFNATTPIEVIGAPTGAKNLFVNGEKASHTVDKNGIWSSEVKYAAPEIKLPGLKDLDWKYLDTLPEIKSSYDDSAWVSADLPKTKNTHRPLDTPTSLYSSDYGFHTGYLIYRGHFVANGKESEFFIRTQGGSAFGSSVWLNETYLGSWTGADYAMDGNSTYKLSQLESGKNYVITVVIDNLGLDENWTVGEETMKNPRGILSYKLSGQDASAITWKLTGNLGGEDYQDKVRGPLNEGGLYAERQGFHQPQPPSESWESGSPLEGLSKPGIGFYTAQFDLDLPKGWDVPLYFNFGNNTQAARAQLYVNGYQYGKFTGNVGPQTSFPVPEGILNYRGTNYVALSLWALESDGAKLGSFELSYTTPVLTGYGNVESPEQPKYEQRKGAY
B2: E142A RRK77: β-galactosidase variant, RRK substitutions ENR with E142A (protein, UniProt Q2UCU3 19-1005, looked up, variant E142A G204E C205N V208R)
Beta-galactosidase A: B1 Beta-galactosidase A with E124A, G186E, C187N, V190R, E240D
B3: S3 RRK 5: RRK loop library variant, positions 204/205/208: ESG (protein, UniProt Q2UCU3 19-1005, looked up, variant G204E C205S V208G)
Beta-galactosidase A: B1 Beta-galactosidase A with G186E, C187S, V190G, E240D
B4: S2 RRK 16: RRK loop library variant, positions 204/205/208: NGR (protein, UniProt Q2UCU3 19-1005, looked up, variant G204N C205G V208R)
Beta-galactosidase A: B1 Beta-galactosidase A with G186N, C187G, V190R, E240D
B5: E142A: A. oryzae β-galactosidase variant, E142A (protein, UniProt Q2UCU3 19-1005, looked up, variant E142A)
Beta-galactosidase A: B1 Beta-galactosidase A with E124A, E240D
B6: S3 RRK 7: RRK loop library variant, positions 204/205/208: DSE (protein, UniProt Q2UCU3 19-1005, looked up, variant G204D C205S V208E)
Beta-galactosidase A: B1 Beta-galactosidase A with G186D, C187S, V190E, E240D

Columns and labels:
Type in all cases: biochemical
[1] = β-galactosidase ONPG activity assay; details: oNPG substrate, over 30 minutes
Method in brief: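 ONPG hydrolysis was run at room temperature in 50 mM sodium citrate pH 5.6 with 10 mM MgCl₂, 100 mM KCl and 2 mM ONPG, followed by o-nitrophenol release at 420 nm. Enzyme came from methanol-induced (72 h) culture supernatant, assayed over 30 min. Vmax was derived, with kinetics from varied substrate where needed.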

[2] = Standard mogroside biocatalytic assay, mogroside V substrate; details: for Initial Rate / Reaction Progress / Sia 1: Mogroside hydrolysis; for Initial Rate / Reaction Progress / Sia 1 / Sia:MogIII / Sia:MogIV: 37 C., pH 5.6; for Reaction Progress / Sia 1 / Sia:MogIII / Sia:MogIV: 72 h; for Sia:MogIII / Sia:MogIV: product ratio
Description: (§1) Standard mogroside biocatalytic assays were performed at 37° C. in 500 μL, volume 50 mM sodium citrate buffer pH 5.6, 10 mM magnesium chloride, 10 mM substrate (typically mogroside V) and 50 μg mL−1 enzyme, and incubated for 24-96 hours. Mogroside glucosidation activity was detected by direct HPLC detection and quantification of mogroside V substrate and mogroside products from filtered reaction supernatant, and quantified by comparison with standard curves based on peak.
(§2) Mogroside compounds HPLC separation and quantification was conducted using a Synergi Hydro-RP column (250 mm×4.6 mm or 150 mm×4.6 mm) with an initial flow rate of 1 mL min−1 and a water: acetonitrile gradient as per below, similar to that described by Zhou et al. (WO 2014/150127). Compounds were detected at 210 nm using diode array detector (Agilent Technologies, USA), and calibration curves established using standard curves from 0.1 to 10 mM.
Cells expressing enzyme variants grown in buffered minimal medium were induced for 72 hr with 1% methanol (refreshed every 24 hr), the culture supernatant harvested and assayed for standard ONPG activity over 30 minutes and mogroside V activity at pH 5.6, 37° C. for 72 hrs. The resultant activity data (Table 2) identified E200 and D258 as the likely catalytic pair for acid/base and nucleophilic attack of mogroside V by the A. oryzae β-glucosidase enzyme.

[3] = Example 8 standard mogroside biocatalytic assay, Sia I as substrate; details: 37° C., pH 5.6
Description: (§3) Standard mogroside biocatalytic assays were performed at 37° C. in 500 μL volume 50 mM sodium citrate buffer pH 5.6, 10 mM magnesium chloride, 10 mM substrate (typically mogroside V or Siamenoside I) and 50 μg mL−1 enzyme, and incubated for 24-96 hours. Mogroside glucosidation activity was detected by direct HPLC detection and quantification of mogroside V substrate and mogroside products from filtered reaction supernatant, and quantified by comparison with standard curves based on peak area (see Analytical Methods).
as §2, with “Analytical Method: Mogroside” for “Mogroside”, “mM. 150 mm column retention times in minutes: mog V 9.5, sia 1 10.6, mog IVa 10.5, mog IV 11.3, mog III 12.6, mogl I 13.2. 250 mm column retention times: mog V 12.3, sia 1 13.2, mog IVa 13.5, mog IV 14.1, mog III 15.3, mog II 16.2.” for “mM.”

[4] = Example 8 standard mogroside biocatalytic assay, Mog V as substrate; details: 37° C., pH 5.6; for % Siamenoside I: 72 hr
Description: as §3
as §2, with “Analytical Method: Mogroside” for “Mogroside”, “mM. 150 mm column retention times in minutes: mog V 9.5, sia 1 10.6, mog IVa 10.5, mog IV 11.3, mog III 12.6, mogl I 13.2. 250 mm column retention times: mog V 12.3, sia 1 13.2, mog IVa 13.5, mog IV 14.1, mog III 15.3, mog II 16.2.” for “mM.”

[5] = as above; details: 37° C., pH 5.6
[6] = RRK loop library variant screening, mogroside V substrate; details: second pass evaluation, 10 mM mogroside V, pH 5.6, 37° C., 72 hours
Description: (§4) Single transformant colonies from 3.2.2 were inoculated into 2mL BMGY in 48 well-growth blocks and grown overnight at 30° C., 1000 rpm in a benchtop incubator before dilution of cell culture from each well into 2 mL BMM medium an equivalent well in a fresh growth block, to an OD600 nm of 1.0, and growing the induction growth blocks at 30° C., 1000 rpm in a benchtop incubator for 72 hours. The cells were then harvested (5000 g, 10 minutes) and the supernatant from each well concentrated using a 30 kDa cut-off Amicon Ultra 0.5 mL concentrator column (10 000 g, 5 minutes). Enzymatic assays were setup in fresh growth blocks to a total volume of 500 μL, comprising with 50 mM sodium citrate buffer pH 5.6, 10 mM magnesium chloride, 10 mM mogroside V and 50 μL concentrated supernatant (˜35 μg mL−1 protein). Assays were incubated without shaking at 37° C. for 72 hours. 190 μL of reaction was combined with 10 μL 10 mM internal standard (N-Boc-) and 5 μL analyzed by HPLC.
as §2, with “mM. 150 mm column retention times in minutes: mog V 9.5, sia 1 10.6, mog IVa 10.5, mog IV 11.3, mog III 12.6, mogl I 13.2. 250 mm column retention times: mog V 12.3, sia 1 13.2, mog IVa 13.5, mog IV 14.1, mog III 15.3, mog II 16.2.” for “mM.”
Therefore, variants showing improved function were chosen if they surpassed a yield value >70% by peak area during this first pass evolution.
(§5) 48 variants were selected based on Siamenoside I yields of >70% by peak area for a second pass evaluation. The cell lines were regrown and assayed with both mogroside V and Siamenoside I as substrates, independently.

[7] = RRK loop library variant second pass evaluation, Siamenoside I substrate; details: Siamenoside I as substrate
Description: as §4
as §2, with “mM. 150 mm column retention times in minutes: mog V 9.5, sia 1 10.6, mog IVa 10.5, mog IV 11.3, mog III 12.6, mogl I 13.2. 250 mm column retention times: mog V 12.3, sia 1 13.2, mog IVa 13.5, mog IV 14.1, mog III 15.3, mog II 16.2.” for “mM.”
as §5

[8] = Mogroside biocatalytic assay, equimolar MogV:SiaI substrate
Description: as §1, §2

[9] = Mogroside biocatalytic assay, Siamenoside I substrate; details: SiaI Substrate (10 mM) (24 h), pH 5.6, 37° C.
Description: as §1, §2

[10] = Equimolar MogV:SiaI Substrate (5 mM each) (48 h), pH 5.6, 37° C.
[11] = Mog V Substrate (10 mM) (24 h), pH 5.6, 37° C.

| Molecule | oNPG [1] [mAu/min/mg] | Initial Rate [2] [µmol/min/mg] | Reaction Progress [2] [%] | Sia 1 [2] [%] | Sia:MogIII [2] | Sia:MogIV [2] | Km [3] [µM] | kcat [3] [s⁻¹] | Reaction progress (% conversion) [4] [%] | % Siamenoside I [4] [%] | Km [5] [µM] | kcat [5] [s⁻¹] | % Peak Area Siamenoside I [6] [% Peak Area] | Reaction Progress [6] | Siamenoside I Substrate Evaluation % Peak Area Siamenoside I Left After 72 hr [7] [% Peak Area] | other results |
| --- | --- | --- | --- | --- | --- | --- | --- | --- | --- | --- | --- | --- | --- | --- | --- | --- |
| B1 | 41.4 ± 0.9 | 2.70 | 99 | 55 | 2.8 | 2.1 | 3310 ± 800 | 36.8 ± 3.1 | 99 | 55 | 2500 ± 200 | 966 ± 26 |  |  |  | rate of mogroside hydrolysis (in words) [2]: increased initial rate of mogroside hydrolysis; also recorded: increased rate of mogroside V hydrolysis |
| B2 |  |  |  |  |  |  |  |  | 89 | 76 ± 3.1 |  |  |  |  |  |  |
| B3 |  |  |  |  |  |  |  |  |  |  |  |  | 73 | 87 | 69 |  |
| B4 |  |  |  |  |  |  |  |  |  |  |  |  | 72 | 87 | 72 |  |
| B5 | 33.6 ± 0.4 | 2.16 | 89 | 73 | 16.2 | 13 | 4420 ± 900 | 3.9 ± 0.7 | 91 | 78 ± 2.8 | 2000 ± 400 | 741 ± 38 |  |  |  | mog II [8, 10]: 0.1 molar percentage; mog III [8, 10]: 3 molar percentage; mog IV [8, 10]: 0.2 molar percentage; mog V [8, 10]: 10 molar percentage; sia I [8, 10]: 82 molar percentage; effectiveness of Siamenoside I as a substrate in the presence of mogroside V (in words) ([8]; comparison of wildtype and variant): reducing the effectiveness of Siamenoside I as a substrate; Siamenoside I production/yield from mogroside V (in words) [2]: increased ratio of Siamenoside I production; also recorded: increased Siamenoside I yield; mog III [2, 11]: 1 molar percentage; mog V [2, 11]: 67 molar percentage; sia I [2, 11]: 32 molar percentage; mog II [9]: 3 molar percentage; mog III [9]: 12 molar percentage; sia I [9]: 84 molar percentage |
| B6 |  |  |  |  |  |  |  |  |  |  |  |  | 72 | 85 | 73 |  |
